Like-named read-outs stand apart in the source and are kept apart here.
What was measured:
[1] = target: T1, human CD73 on the cell surface (human, UniProt P21589 27-549); assay: cell-based or functional assay
T1 sequence: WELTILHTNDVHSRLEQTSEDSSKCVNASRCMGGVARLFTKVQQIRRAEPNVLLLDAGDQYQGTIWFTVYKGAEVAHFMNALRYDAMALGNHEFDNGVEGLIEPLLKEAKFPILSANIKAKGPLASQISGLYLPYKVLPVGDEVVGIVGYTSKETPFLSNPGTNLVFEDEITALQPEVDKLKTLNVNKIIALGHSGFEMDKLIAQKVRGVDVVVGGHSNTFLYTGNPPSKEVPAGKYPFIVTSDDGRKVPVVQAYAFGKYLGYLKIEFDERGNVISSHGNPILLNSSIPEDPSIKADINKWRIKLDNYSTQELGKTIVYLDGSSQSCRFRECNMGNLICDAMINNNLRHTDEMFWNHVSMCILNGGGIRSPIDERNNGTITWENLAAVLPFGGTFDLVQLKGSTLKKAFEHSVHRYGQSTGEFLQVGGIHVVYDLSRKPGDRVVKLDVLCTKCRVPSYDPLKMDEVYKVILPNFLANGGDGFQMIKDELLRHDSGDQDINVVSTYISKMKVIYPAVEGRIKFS

[2] = target: T2, human CD73 protein (ACRO Biosystems, Cat No. CD3-H52H7) (human, UniProt P21589 27-547); assay: SPR (Biacore T200), antibody captured on protein A chip, CD73 as analyte, 1:1 model
T2 construct: Bought protein; also called recombinant CD73 protein; recombinant CD73
T2 sequence: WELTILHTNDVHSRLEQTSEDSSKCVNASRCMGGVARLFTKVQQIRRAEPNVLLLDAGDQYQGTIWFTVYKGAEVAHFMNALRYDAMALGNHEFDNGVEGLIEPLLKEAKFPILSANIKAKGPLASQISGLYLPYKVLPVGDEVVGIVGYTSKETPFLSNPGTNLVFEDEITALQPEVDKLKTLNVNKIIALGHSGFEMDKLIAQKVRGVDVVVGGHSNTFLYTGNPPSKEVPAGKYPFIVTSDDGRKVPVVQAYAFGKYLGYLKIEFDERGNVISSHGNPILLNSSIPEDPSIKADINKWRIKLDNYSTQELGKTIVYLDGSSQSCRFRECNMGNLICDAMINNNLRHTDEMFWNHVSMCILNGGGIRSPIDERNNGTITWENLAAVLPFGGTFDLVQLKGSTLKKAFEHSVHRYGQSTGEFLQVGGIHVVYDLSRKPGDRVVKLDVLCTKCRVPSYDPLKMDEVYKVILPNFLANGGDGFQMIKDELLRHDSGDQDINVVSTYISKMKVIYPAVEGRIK
Procedure: (§1) The temperatures of the sample chamber and flow path were set at 25° C. The protein A chips separately captured the antigen-binding proteins as ligands, which were immobilized at about 100 RU. […] Ten mM Glycine, pH 1.5, was regenerated for 60 s at a flow rate of 50 μL/min for multiple cycle kinetic detection. The binding rate constant (ka), dissociation rate constant (kd) and dissociation equilibrium rate constant (KD) were fitted using the Fit local mode of a 1:1 binding model.

[3] = target: T2, human CD73 protein (ACRO Biosystems, …); assay: cell-based or functional assay
[4] = target: T3, mouse CD73/NT5E (ACRO Biosystems, Cat No. CD3-M52H9) (mouse, UniProt Q61503 29-551); assay: SPR (Biacore T200), antibody captured on protein A chip
T3 construct: Bought protein
T3 sequence (looked up): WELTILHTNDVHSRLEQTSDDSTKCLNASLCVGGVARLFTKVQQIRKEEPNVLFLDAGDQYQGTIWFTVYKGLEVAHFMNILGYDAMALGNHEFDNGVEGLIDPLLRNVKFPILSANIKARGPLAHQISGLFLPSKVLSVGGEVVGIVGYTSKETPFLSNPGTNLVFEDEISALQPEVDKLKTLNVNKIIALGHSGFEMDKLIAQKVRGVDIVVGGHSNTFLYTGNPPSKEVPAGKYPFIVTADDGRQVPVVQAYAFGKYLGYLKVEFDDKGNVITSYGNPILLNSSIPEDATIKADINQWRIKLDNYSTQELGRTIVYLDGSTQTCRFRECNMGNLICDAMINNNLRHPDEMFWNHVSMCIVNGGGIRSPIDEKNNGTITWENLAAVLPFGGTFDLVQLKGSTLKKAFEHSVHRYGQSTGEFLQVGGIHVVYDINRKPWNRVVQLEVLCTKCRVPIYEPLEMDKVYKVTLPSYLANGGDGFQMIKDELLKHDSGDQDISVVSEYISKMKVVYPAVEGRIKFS
Procedure: as §1, with “[…]” for “μL/min”

[5] = target: T4, rat CD73 (Novoprotein, Cat No. CB16) (rat, UniProt P21588 29-551, limits assumed); assay: as above
T4 construct: Bought protein
T4 sequence (looked up): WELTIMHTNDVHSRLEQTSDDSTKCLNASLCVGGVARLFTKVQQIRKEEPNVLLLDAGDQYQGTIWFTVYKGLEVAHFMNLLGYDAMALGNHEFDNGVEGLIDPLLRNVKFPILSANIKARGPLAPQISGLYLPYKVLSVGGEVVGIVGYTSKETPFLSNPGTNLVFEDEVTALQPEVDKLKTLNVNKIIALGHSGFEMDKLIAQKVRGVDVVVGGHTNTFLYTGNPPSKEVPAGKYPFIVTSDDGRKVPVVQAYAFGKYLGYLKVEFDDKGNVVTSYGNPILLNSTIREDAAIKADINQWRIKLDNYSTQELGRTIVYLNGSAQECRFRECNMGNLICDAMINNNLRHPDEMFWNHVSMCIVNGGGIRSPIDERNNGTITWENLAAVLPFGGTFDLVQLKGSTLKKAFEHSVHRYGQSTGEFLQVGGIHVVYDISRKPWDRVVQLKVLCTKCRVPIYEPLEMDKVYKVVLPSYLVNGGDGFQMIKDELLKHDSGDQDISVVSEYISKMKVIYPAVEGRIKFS
Procedure: as §1, with “[…]” for “μL/min”

[6] = target: T1, human CD73 on the cell surface; assay: flow cytometry on CHOK1-huCD73-3F4 cells, PE anti-human Fc
Procedure: (§2) All the antigen-binding proteins were diluted to 30 μg/ml with PBS solution containing 1% BSA (1% BSA/PBS), diluted at 3-fold into 11 gradients and then added to a 96-well U-shaped plate at 20 μL/well, and negative control (1% BSA/PBS was added only) was set up simultaneously. The suspension of human CD73-expressing cells (CHOK1-huCD73-3F4, Huabo Biopharm) in the logarithmic growth phase were collected and centrifuged at 1000 rpm for 5 min, and the culture medium was discarded; then the cells were resuspended with 1% BSA/PBS to a viable cell density of 1×10⁶/mL, and then added into the 96-well U-shaped plate already added with anti-CD73 antigen-binding protein at 20 μL (2×10⁴ cells)/well for reaction at room temperature for 30 min. […] After the reaction, the cells in the 96-well U-shaped plate were resuspended with 1% BSA/PBS and centrifuged at 300 g for 3 min and the supernatant was discarded; after washing in this manner 3 times, and the cells were finally resuspended with 1% BSA/PBS at 100 μL/well, and the fluorescence intensity of the PE channel was measured with a flow cytometer (BD, #Canto II).

[7] = target: T1, human CD73 on the cell surface; assay: as above; remark: listed apart in the source
Procedure: as §2

[8] = target: T1, human CD73 on the cell surface; assay: cell-based or functional assay; remark: listed apart in the source

B1: 900222 (antibody, from another filing, V domains shown)
VH: QVQLVESGGGVVQPGRSLRLSCAASGFTFSNYGMHWVRQAPGKGLEWVAVILYDGSNKYYPDSVKGRFTISRDNSKNTLYLQMNSLRAEDTAVYYCARGGSSWYPDSFDIWGQGTMVTVSS
VL: DIQMTQSPSSLSASVGDRVTITCRASQGISSWLAWYQQKPEKAPKSLIYAASSLQSGVPSRFSGSGSGTDFTLTISSLQPEDFATYYCQQYNSYPLTFGGGTKVEIKR
Endocytosis efficiency (%) [1]: 44.2%

B2: 900694 (antibody, V domains shown)
VH: EVQLVESGGGLVKPGGSLRLSCAASGFTFSKYAMSWVRQAPGKGLEWVAEISSGGGYINYPDTVTGRFTISRDNAKNSLYLQMNSLRAEDTAVYYCARAIYYYGSSYNYYAMDYWGQGTTVTVSS
VL: DIQMTQSPSSLSASVGDRVTITCRASQDVGTAEAWYQQKPGKAPKLLIYWASTRHTGVPDRFSGSGSGTDFTLTISSLQPEDFATYYCQQYSSYPLTFGQGTKLEIK
notes: Constant regions are not restated; it was detected with anti-human Fc and captured on protein A
Kd [2]: 1.5 nM | koff [2]: 0.000493 s⁻¹ | kon [2]: 329000 M⁻¹ s⁻¹ | EC50(µg/mL), inhibition of recombinant CD73 (CellTiter-Glo) [3]: 0.681 µg/mL | binding result [4]: no binding (tested: up to 50 nM analyte) | binding result [5]: no binding (tested: up to 50 nM analyte) | EC50 [6]: 0.646 µg/mL

B3: 900565 (antibody, V domains shown)
VH: QAYLQQSGAELVRPGASVKMSCKASGYTFTSYNMHWVKQTPRQGLEWIGAIYPGNGDTSYNQKFKGKATLNVDKSSSTAYMQLSSLTSEDSAVYFCARWGYGSNYAWYFDIWGTGTTVTVSS
VL: DIQMTQSPASLSASVGETVTITCRTSGNIHNYLVWYQQKQGKSPQLLVFNAKTLADGVPSRFSGSGSGTQYSLKINSLQPEDFGSYYCQHFWSTPFTFGSGTKLEIK
notes: Chimeric antibody derived from hybridoma 115B10; it was detected with anti-human Fc
EC50 [7]: 2.14 µg/mL | EC50(µg/mL), inhibition of enzyme activity of CD73 on CHOK1-huCD73-3F4 cells [8]: 1.62 µg/mL
